Data: patent US20160220655A1 (BOARD OF REGENTS FOR OKLAHOMA STATE UNIVERSITY, published 2016)

Target: T1, SipB (recombinant, His-tag technology, expressed in E. coli) (Salmonella, UniProt Q56019 1-593)
T1 construct: also called first 'translocator' protein SipB from SPI-1
T1 sequence: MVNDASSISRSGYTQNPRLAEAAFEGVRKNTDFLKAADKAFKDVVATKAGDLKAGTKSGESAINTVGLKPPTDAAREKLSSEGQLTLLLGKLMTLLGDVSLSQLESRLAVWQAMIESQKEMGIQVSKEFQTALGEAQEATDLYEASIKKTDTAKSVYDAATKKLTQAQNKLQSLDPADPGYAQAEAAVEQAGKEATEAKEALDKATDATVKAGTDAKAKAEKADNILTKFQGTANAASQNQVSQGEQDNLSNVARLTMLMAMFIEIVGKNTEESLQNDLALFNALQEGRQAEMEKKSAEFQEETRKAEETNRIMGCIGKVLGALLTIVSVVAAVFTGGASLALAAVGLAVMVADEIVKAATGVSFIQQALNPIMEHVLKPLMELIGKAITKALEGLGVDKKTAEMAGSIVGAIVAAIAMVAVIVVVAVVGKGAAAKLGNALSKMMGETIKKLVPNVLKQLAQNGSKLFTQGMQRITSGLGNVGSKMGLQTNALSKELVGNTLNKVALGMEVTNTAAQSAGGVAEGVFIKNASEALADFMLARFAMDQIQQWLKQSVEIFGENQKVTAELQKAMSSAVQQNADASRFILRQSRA
Experiment: co-expression in E. coli and co-purification by column chromatography

B1: SicA, cognate chaperone of SipB (other)
chain: MDYQNNVSEERVAEMIWDAVSEGATLKDVHGIPQDMMDGLYAHAYEFYNQGRLDEAETFFRFLCIYDFYNPDYTMGLAAVCQLKKQFQKACDLYAVAFTLLKNDYRPVFFTGQCQLLMRKAAKARQCFELVNERTEDESLRAKALVYLEALKTAETEQHSEQEKE
B1: binds.
